Values of other authors as cited in patent EP0997151B1, “Method for administering insulinotropic peptides” (priority 1998, dated 2006).

Conditions: pulmonary delivery; calculated, background

In the case of parathyroid hormone (1-34), the “Absorption values for proteins delivered through the lungs” value is given as “fifteen”.
